# Assay results: PMC5052646, “DNA annealing by Redβ is insufficient for homologous recombination and the additional requirements involve intra- and inter-molecular interactions” (Scientific Reports, 2016)
# B1: 50-mer complementary pair, sequentially added (dsDNA)
# DNA 1: CCATCCGCAAAAATCGAGCTATGCAGGGCGATTCTGCTCTAAGCCATCCG
# DNA 2: GCGGATGGCTTAGAGCAGAATCGCCCTGCATAGCTCGATTTTTGCGGATG
# B2: Redα, Strep-tag II tagged, purified, P03697 1-226 (enzyme)
# chain: MTPDIILQRTGIDVRAVEQGDDAWHKLRLGVITASEVHNVIAKPRSGKKWPDMKMSYFHTLLAEVCTGVAPEVNAKALAWGKQYENDARTLFEFTSGVNVTESPIIYRDESMRTACSPDGLCSDGNGLELKCPFTSRDFMKFRLGGFEAIKSAYMAQVQYSMWVTRKNAWYFANYDPRMKREGLHYVVIERDEKYMASFDEIVPEFIEKMDEALAEIGFVFGEQWR
# B3: C3Redβ (1–185), Strep-tag II tagged, purified (domain or fragment, λ phage, UniProt P03698 1-185, looked up)
# chain: MSTALATLAGKLAERVGMDSVDPQELITTLRQTAFKGDASDAQFIALLIVANQYGLNPWTKEIYAFPDKQNGIVPVVGVDGWSRIINENQQFDGMDFEQDNESCTCRIYRKDRNHPICVTEWMDECRREPFKTREGREITGPWQSHPKRMLRHKAMIQCARLAFGFAGIYDKDEAERIVENTAYT
# notes: Redβ of λ phage, residues 1-185 (C-terminal truncation C3); also called C3 deletion; C3-truncated Redβ; not shown: Strep-tag II, C-terminal, kept
# B4: N1Redβ (20–261), Strep-tag II tagged, purified (domain or fragment, λ phage, UniProt P03698 20-261, looked up)
# chain: SVDPQELITTLRQTAFKGDASDAQFIALLIVANQYGLNPWTKEIYAFPDKQNGIVPVVGVDGWSRIINENQQFDGMDFEQDNESCTCRIYRKDRNHPICVTEWMDECRREPFKTREGREITGPWQSHPKRMLRHKAMIQCARLAFGFAGIYDKDEAERIVENTAYTAERQPERDITPVNDETMQEINTLLIALDKTWDDDLLPLCSQIFRRDIRASSELTQAEAVKALGFLKQKAAEQKVAA
# notes: Redβ of λ phage, residues 20-261 (N-terminal truncation N1); also called N1 deletion; not shown: Strep-tag II, C-terminal, kept
# B5: wt Redβ, Strep-tag II tagged, purified (natural protein, λ phage, UniProt P03698 1-261, looked up)
# chain: MSTALATLAGKLAERVGMDSVDPQELITTLRQTAFKGDASDAQFIALLIVANQYGLNPWTKEIYAFPDKQNGIVPVVGVDGWSRIINENQQFDGMDFEQDNESCTCRIYRKDRNHPICVTEWMDECRREPFKTREGREITGPWQSHPKRMLRHKAMIQCARLAFGFAGIYDKDEAERIVENTAYTAERQPERDITPVNDETMQEINTLLIALDKTWDDDLLPLCSQIFRRDIRASSELTQAEAVKALGFLKQKAAEQKVAA
# notes: Redβ, single strand annealing protein of λ phage; the ORF cloned into pASK-IBA2; 261 residues by the printed limits of the truncations; also called wild type Redβ; not shown: Strep-tag II, C-terminal, kept
# How the values were obtained:
# [1] = target: T1, C3Redβ (phage lambda, UniProt P03698 1-185); test: EMSA; 10 uM protein, 1 uM DNA; weak ssDNA binding (smear), non-complementary Cy5 oligo added; EMSA: 10 uM protein, 1 uM DNA, 20 mM Tris-HCl pH 7.5, 10 mM NaCl, 10 mM MgCl2, 37 C 30 min (+30 min after complementary oligo), 1.2-1.6% agarose, 2x TBE; conditions: protein: recombinant; tags: Strep-tag II; N-terminal per Methods, C-terminal per legends; single strand
# T1 sequence: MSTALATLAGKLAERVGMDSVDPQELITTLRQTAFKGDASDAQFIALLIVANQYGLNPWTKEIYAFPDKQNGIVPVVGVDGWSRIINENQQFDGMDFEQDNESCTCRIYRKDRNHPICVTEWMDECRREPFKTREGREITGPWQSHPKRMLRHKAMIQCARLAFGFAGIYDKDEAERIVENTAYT
# [2] = target: T2, Redβ wt (phage lambda, UniProt P03698 1-261); test: as above; conditions: protein: recombinant; single strand
# T2 sequence: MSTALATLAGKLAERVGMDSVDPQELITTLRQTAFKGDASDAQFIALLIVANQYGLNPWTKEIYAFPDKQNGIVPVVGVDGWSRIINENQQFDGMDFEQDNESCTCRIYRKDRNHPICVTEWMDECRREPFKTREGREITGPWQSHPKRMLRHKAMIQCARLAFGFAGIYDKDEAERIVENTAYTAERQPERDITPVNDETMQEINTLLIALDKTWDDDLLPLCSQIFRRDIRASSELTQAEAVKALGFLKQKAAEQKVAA
# [3] = target: T1, C3Redβ; test: EMSA; sequential addition of strands; annealed nucleoprotein filament; EMSA: 10 uM protein, 1 uM DNA, 20 mM Tris-HCl pH 7.5, 10 mM NaCl, 10 mM MgCl2, 37 C 30 min (+30 min after complementary oligo), 1.2-1.6% agarose, 2x TBE; conditions: protein: recombinant; tags: Strep-tag II; N-terminal per Methods, C-terminal per legends; label: 5'-Cy3 on one strand, 5'-Cy5 on the other; 49 bp, 5' overhang 1 nt at each end as printed; annealed by the protein
# [4] = target: T2, Redβ wt; test: as above; conditions: protein: recombinant; label: 5'-Cy3 on one strand, 5'-Cy5 on the other; 49 bp, 5' overhang 1 nt at each end as printed; annealed by the protein
# [5] = target: T3, wt Redβ, Strep-tag II tagged, purified (λ phage), P03698; test: ITC; Redα (150 μM) injected in 2 μl steps at 3 min intervals into the cell with Redβ (15 μM); 25 °C; 20 mM HEPES, 150 mM sodium chloride, 1 mM magnesium chloride, 0.5 mM TECP, pH 8; single-site binding model; conditions: remark: other sources report otherwise
# T3 chain: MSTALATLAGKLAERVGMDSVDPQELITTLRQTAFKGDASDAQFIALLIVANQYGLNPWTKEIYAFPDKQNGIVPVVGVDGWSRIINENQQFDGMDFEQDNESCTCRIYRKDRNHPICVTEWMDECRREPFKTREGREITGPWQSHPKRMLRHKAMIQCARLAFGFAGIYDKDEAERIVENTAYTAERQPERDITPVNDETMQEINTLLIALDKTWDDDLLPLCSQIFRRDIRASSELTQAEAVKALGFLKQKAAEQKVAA
# [6] = target: the molecule itself; test: SEC-MALS; SEC peaks analysed by DLS and SLS/MALS (Dawn Heleos II); purified Redβ proteins injected at 1 mg/ml; species after elution (dilution); without DNA
binder,measurement,setting,value
CCATCCGCAAAAATCGAGCTATGCAGGGCGATTCTGCTCTAAGCCATCCG (ssDNA) [Cy3 50-mer ssDNA],binding result,[1],binds
same,binding result,[2],binds
B1,binding result,[3],binds
same,binding result,[4],binds
B2,Kd,[5],7.9 µM
same,dH,[5],-9.84 kcal/mol
B3,"Dist (%) of Species 3 (1 subunit, monomer)",[6],9.3%
B4,"Dist (%) of Species 3 (1 subunit, monomer)",[6],7.4%
B5,"Dist (%) of Species 3 (1 subunit, monomer)",[6],68.2%
